The source of these data is the array DNA melting data of Ke et al..

As a reminder, the Tm is the temperature at the midpoint of the melting transition.

The data set can be described thus: melting temperature; melt of duplexes. As to conditions: sodium 0.0675 M; strand 1 µM.
Take “CGACGTGCTATATGTGCTG+CAGCACATACGGCACGTCG ((((((((..(((((((((+)))))))))..))))))))”: the Tm was 50.7 °C.

For “CGACGTGCCATATGTGCTG+CAGCACATTAGGCACGTCG (((((((((..((((((((+))))))))..)))))))))”, the Tm was found to be 55.6 °C.

For “CGACGTGCGCCATGTGCTG+CAGCACATTGAGCACGTCG ((((((((.(.((((((((+)))))))).).))))))))”, the Tm amounted to 52.6 °C.

As to “CGACGTGCAAGATGTGCTG+CAGCACATGTTGCACGTCG ((((((((((.((((((((+)))))))).))))))))))”, the midpoint of thermal melting (Tm) is 57.8 °C.

For the substance “CGACGTGCAGGATGTGCTG+CAGCACATAATGCACGTCG (((((((((..((((((((+))))))))..)))))))))”, the melting temperature (Tm) is 55.2 °C.

Take “CGACGTGCGCTATGTGCTG+CAGCACATTTTGCACGTCG ((((((((...((((((((+))))))))...))))))))”: the Tm came out at 48.3 °C.

As to “CGACGTGCCACATGTGCTG+CAGCACATGCCGCACGTCG ((((((((..(((((((((+)))))))))..))))))))”, the midpoint of thermal melting (Tm) is 52 °C.

As for “CGACGTGCTTAATGTGCTG+CAGCACATCAAGCACGTCG ((((((((((.((((((((+)))))))).))))))))))”, the Tm is 55 °C.

Take “CGACGTGCGTGATGTGCTG+CAGCACATCTAGCACGTCG ((((((((..(((((((((+)))))))))..))))))))”: the Tm amounted to 57.2 °C.

On to “CGACGTGCATGATGTGCTG+CAGCACATTCGGCACGTCG ((((((((...((((((((+))))))))...))))))))”, for which the melting temperature (Tm) is 50.3 °C.

On to “CGACGTGCTTAATGTGCTG+CAGCACATTTTGCACGTCG ((((((((..(((((((((+)))))))))..))))))))”, for which the Tm was found to be 52.5 °C.

Consider “CGACGTGCCAAATGTGCTG+CAGCACATGAGGCACGTCG (((((((((..((((((((+))))))))..)))))))))”, for which the Tm was determined as 57.3 °C.

With “CGACGTGCTTTATGTGCTG+CAGCACATTACGCACGTCG ((((((((.(.((((((((+)))))))).).))))))))”, the melting temperature (Tm) turned out to be 48.7 °C.

Take “CGACGTGCCGCATGTGCTG+CAGCACATGGAGCACGTCG ((((((((..(((((((((+)))))))))..))))))))”: the melting temperature (Tm) came out at 55.1 °C.

Regarding “CGACGTGCGCAATGTGCTG+CAGCACATCTAGCACGTCG ((((((((...((((((((+))))))))...))))))))”, the melting temperature (Tm) came out at 51.8 °C.

In the case of “CGACGTGCGGAATGTGCTG+CAGCACATGGTGCACGTCG ((((((((...((((((((+))))))))...))))))))”, the melting temperature (Tm) was 52.2 °C.

For the substance “CGACGTGCGCTATGTGCTG+CAGCACATTACGCACGTCG (((((((((..((((((((+))))))))..)))))))))”, the midpoint of thermal melting (Tm) was 53.4 °C.

“CGACGTGCGAGATGTGCTG+CAGCACATCAAGCACGTCG ((((((((..(((((((((+)))))))))..))))))))”: the Tm was 58.6 °C.

Turning to “CGACGTGCACCATGTGCTG+CAGCACATGCTGCACGTCG (((((((((.(((((((((+))))))))).)))))))))”, the Tm stood at 51.6 °C.

“CGACGTGCTGGATGTGCTG+CAGCACATTGCGCACGTCG ((((((((...((((((((+))))))))...))))))))”: the melting temperature (Tm) worked out at 49.5 °C.

Regarding “CGACGTGCTAGATGTGCTG+CAGCACATCCAGCACGTCG (((((((((.(((((((((+))))))))).)))))))))”, the Tm stood at 56.1 °C.

For “CGACGTGCTGCATGTGCTG+CAGCACATGGCGCACGTCG ((((((((..(((((((((+)))))))))..))))))))”, the melting temperature (Tm) was 55.3 °C.

Consider “CGACGTGCTCTATGTGCTG+CAGCACATAATGCACGTCG ((((((((..(((((((((+)))))))))..))))))))”, for which the melting temperature (Tm) came to 50.4 °C.

For the substance “CGACGTGCCAAATGTGCTG+CAGCACATGCAGCACGTCG ((((((((...((((((((+))))))))...))))))))”, the Tm was determined as 52.7 °C.

With “CGACGTGCAACATGTGCTG+CAGCACATCGTGCACGTCG (((((((((..((((((((+))))))))..)))))))))”, the melting temperature (Tm) amounted to 47.9 °C.

Regarding “CGACGTGCAGTATGTGCTG+CAGCACATGCAGCACGTCG ((((((((.(.((((((((+)))))))).).))))))))”, the Tm stood at 54.7 °C.

For “CGACGTGCTGCATGTGCTG+CAGCACATGGGGCACGTCG ((((((((..(((((((((+)))))))))..))))))))”, the Tm came to 57 °C.

As for “CGACGTGCCAAATGTGCTG+CAGCACATCCGGCACGTCG (((((((((..((((((((+))))))))..)))))))))”, the Tm was found to be 53.3 °C.

As for “CGACGTGCCCTATGTGCTG+CAGCACATCTAGCACGTCG ((((((((...((((((((+))))))))...))))))))”, the midpoint of thermal melting (Tm) was found to be 48 °C.

For “CGACGTGCAACATGTGCTG+CAGCACATGCGGCACGTCG ((((((((..(((((((((+)))))))))..))))))))”, the Tm stood at 53.5 °C.

Regarding “CGACGTGCACCATGTGCTG+CAGCACATCTCGCACGTCG ((((((((...((((((((+))))))))...))))))))”, the Tm came out at 41.8 °C.

On to “CGACGTGCGCGATGTGCTG+CAGCACATTTCGCACGTCG (((((((((..((((((((+))))))))..)))))))))”, for which the Tm is 53.5 °C.

Consider “CGACGTGCAGAATGTGCTG+CAGCACATGATGCACGTCG (((((((((..((((((((+))))))))..)))))))))”, for which the Tm stood at 57.9 °C.

With “CGACGTGCCCTATGTGCTG+CAGCACATACGGCACGTCG (((((((((.(((((((((+))))))))).)))))))))”, the Tm is 53.5 °C.

As for “CGACGTGCGTGATGTGCTG+CAGCACATCGTGCACGTCG ((((((((..(((((((((+)))))))))..))))))))”, the Tm was found to be 54.5 °C.

As to “CGACGTGCGACATGTGCTG+CAGCACATGGCGCACGTCG (((((((((.(((((((((+))))))))).)))))))))”, the Tm is 65.2 °C.

Consider “CGACGTGCGCCATGTGCTG+CAGCACATTGCGCACGTCG ((((((((((.((((((((+)))))))).))))))))))”, for which the Tm worked out at 59.3 °C.

As to “CGACGTGCGAGATGTGCTG+CAGCACATCGCGCACGTCG (((((((((.(((((((((+))))))))).)))))))))”, the melting temperature (Tm) came out at 62.5 °C.

Consider “CGACGTGCAGCATGTGCTG+CAGCACATGCCGCACGTCG ((((((((.((((((((((+)))))))))).))))))))”, for which the melting temperature (Tm) turned out to be 59.1 °C.

Consider “CGACGTGCCACATGTGCTG+CAGCACATAAAGCACGTCG ((((((((...((((((((+))))))))...))))))))”, for which the Tm amounted to 49.1 °C.

With “CGACGTGCTGGATGTGCTG+CAGCACATGCCGCACGTCG ((((((((.(.((((((((+)))))))).).))))))))”, the Tm came out at 53.6 °C.

In the case of “CGACGTGCGCGATGTGCTG+CAGCACATAAAGCACGTCG ((((((((...((((((((+))))))))...))))))))”, the midpoint of thermal melting (Tm) turned out to be 54 °C.

Take “CGACGTGCGAGATGTGCTG+CAGCACATGACGCACGTCG (((((((((..((((((((+))))))))..)))))))))”: the Tm was determined as 53.2 °C.

For “CGACGTGCTGGATGTGCTG+CAGCACATCAAGCACGTCG (((((((((.(((((((((+))))))))).)))))))))”, the melting temperature (Tm) is 59 °C.

For “CGACGTGCCCGATGTGCTG+CAGCACATCTGGCACGTCG (((((((((.(((((((((+))))))))).)))))))))”, the Tm worked out at 59.1 °C.

As to “CGACGTGCCATATGTGCTG+CAGCACATCTCGCACGTCG ((((((((.(.((((((((+)))))))).).))))))))”, the Tm was 47.7 °C.

In the case of “CGACGTGCACAATGTGCTG+CAGCACATGCGGCACGTCG ((((((((...((((((((+))))))))...))))))))”, the midpoint of thermal melting (Tm) stood at 46.6 °C.

For “CGACGTGCAGTATGTGCTG+CAGCACATGTAGCACGTCG ((((((((...((((((((+))))))))...))))))))”, the midpoint of thermal melting (Tm) worked out at 49.8 °C.

Turning to “CGACGTGCGGGATGTGCTG+CAGCACATCGCGCACGTCG (((((((((.(((((((((+))))))))).)))))))))”, the Tm stood at 63.7 °C.

Take “CGACGTGCGAGATGTGCTG+CAGCACATCTGGCACGTCG ((((((((.((((((((((+)))))))))).))))))))”: the Tm worked out at 59 °C.

With “CGACGTGCTAAATGTGCTG+CAGCACATTGTGCACGTCG ((((((((..(((((((((+)))))))))..))))))))”, the midpoint of thermal melting (Tm) was 50.7 °C.

As for “CGACGTGCTAGATGTGCTG+CAGCACATGGGGCACGTCG ((((((((...((((((((+))))))))...))))))))”, the midpoint of thermal melting (Tm) was 51 °C.

On to “CGACGTGCCTGATGTGCTG+CAGCACATACGGCACGTCG (((((((((..((((((((+))))))))..)))))))))”, for which the Tm is 54.1 °C.

In the case of “CGACGTGCCTTATGTGCTG+CAGCACATCCCGCACGTCG ((((((((...((((((((+))))))))...))))))))”, the Tm was determined as 46.8 °C.

Regarding “CGACGTGCCCTATGTGCTG+CAGCACATTGTGCACGTCG ((((((((.(.((((((((+)))))))).).))))))))”, the Tm worked out at 47.8 °C.

With “CGACGTGCCCGATGTGCTG+CAGCACATGGCGCACGTCG ((((((((.(.((((((((+)))))))).).))))))))”, the Tm turned out to be 53.3 °C.

Consider “CGACGTGCCTGATGTGCTG+CAGCACATCCTGCACGTCG ((((((((..(((((((((+)))))))))..))))))))”, for which the Tm was 53.1 °C.

On to “CGACGTGCCCCATGTGCTG+CAGCACATTTCGCACGTCG ((((((((...((((((((+))))))))...))))))))”, for which the midpoint of thermal melting (Tm) turned out to be 46 °C.

For the substance “CGACGTGCGGCATGTGCTG+CAGCACATAGTGCACGTCG ((((((((...((((((((+))))))))...))))))))”, the Tm came to 45.9 °C.

As to “CGACGTGCTGCATGTGCTG+CAGCACATAGCGCACGTCG ((((((((...((((((((+))))))))...))))))))”, the Tm was 54.2 °C.

As for “CGACGTGCGCGATGTGCTG+CAGCACATAACGCACGTCG (((((((((..((((((((+))))))))..)))))))))”, the Tm came out at 54.4 °C.

Turning to “CGACGTGCTTTATGTGCTG+CAGCACATCCCGCACGTCG ((((((((...((((((((+))))))))...))))))))”, the Tm was 46.8 °C.

In the case of “CGACGTGCGGGATGTGCTG+CAGCACATTGTGCACGTCG ((((((((...((((((((+))))))))...))))))))”, the Tm turned out to be 49.4 °C.

Consider “CGACGTGCCATATGTGCTG+CAGCACATCCGGCACGTCG (((((((((..((((((((+))))))))..)))))))))”, for which the Tm came to 52.8 °C.

In the case of “CGACGTGCTTAATGTGCTG+CAGCACATTTAGCACGTCG (((((((((.(((((((((+))))))))).)))))))))”, the melting temperature (Tm) amounted to 55.5 °C.

For “CGACGTGCATAATGTGCTG+CAGCACATAAGGCACGTCG ((((((((.(.((((((((+)))))))).).))))))))”, the Tm is 51.3 °C.
